One molecule from publication PMC9376891 can be followed below.

The series deals with Rae1(31-368);Nup98(157-213) GLEBS (human;human, UniProt P78406;P52948 31-368;157-213, |). Briefly: EMSA. The following applies: protein: recombinant;recombinant; tags: untagged;N-terminal His tag removed by TEV; copies: 1;1; label: 5' FAM; single strand. (In general: Mobility shift assays separate free from complexed probe on a gel.)
Sequence of Rae1(31-368);Nup98(157-213) GLEBS (P78406 31-368, chain 1 of 2): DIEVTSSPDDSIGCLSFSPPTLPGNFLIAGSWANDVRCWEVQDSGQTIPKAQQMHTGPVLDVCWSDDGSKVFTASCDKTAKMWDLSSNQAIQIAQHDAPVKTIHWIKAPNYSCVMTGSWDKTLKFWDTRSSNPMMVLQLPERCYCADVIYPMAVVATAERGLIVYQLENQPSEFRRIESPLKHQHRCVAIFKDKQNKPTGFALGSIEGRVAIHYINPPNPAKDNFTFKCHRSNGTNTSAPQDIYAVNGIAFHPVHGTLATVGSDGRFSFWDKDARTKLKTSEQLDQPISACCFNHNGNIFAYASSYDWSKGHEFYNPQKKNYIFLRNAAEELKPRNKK
Sequence of Rae1(31-368);Nup98(157-213) GLEBS (P52948 157-213, chain 2 of 2): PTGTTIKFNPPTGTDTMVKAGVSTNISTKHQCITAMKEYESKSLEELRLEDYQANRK

Regarding UUUUUUUUUU (ssRNA) [10-mer poly(U) ssRNA], the binding result is given as “binds”.
